Data from doi:10.1101/507483.
Read-outs that look alike come from different tables or passages of the source.

Tests used:
[1] = target: TagA^ΔC, N-terminal domain of TagA from Thermoanaerobacter italicus (residues Met1-Gly195) (Thermoanaerobacter italicus); test: AUC
[2] = target: TagA^ΔC, N-terminal domain of TagA from Thermoanaerobacter italicus (residues Met1-Gly195) (Thermoanaerobacter italicus); test: AUC; remark: listed apart in the source

Substance “TagA^ΔC, N-terminal domain of TagA from Thermoanaerobacter italicus (residues Met1-Gly195) (domain or fragment)” has a Kd [1] of 7.4 µM, a stoichiometry N [1] of 2 and a Kd [2] of 3.5 µM. The stoichiometry N [2] was 2.
